The values below come from patent publication US20160219844A1 (published 2016).

The assay addresses T1, green fluorescent protein (GFP) peptide on H-2Kd (mouse).
T1 peptide: HYLSTQSAL
Nature of the assay: multimer staining. The source says:
FIG. 1 is a pair of graphs showing detection of GFP-specific CD8+ T cells in founder αGFP mice generated by somatic cell nuclear transfer (“SCNT”). Cells were collected from the lymph nodes of founder αGFP mice. The cells were stained for CD8 and an anti-H-2K^d-GFP₂₀₀₋₂₀₈ pentamer. Representative FACS is shown in all 14 founders. Note that these are founder mice and thus chimeric.

B1: GFP-specific T cell receptor (αGFP TCR) of SEQ ID NOs 2 and 4 (TCR, V domains shown)
Valpha: QQKVQQSPESLSVPEGGMASFNCTSSDRNFQYFWWYRQHSGEGPKALMSIFSDGDKKEGRFTAHLNKASLHVSLHIRDSQPSDSALYFCAASHDTNAYKVIFGKGTHLHVLP
Vbeta: DPKIIQKPKYLVAVTGSEKILICEQYLGHNAMYWYRQSAKKPLEFMFSYSYQKLMDNQTASSRFQPQSSKKNHLDLQITALKPDDSATYFCASSQGAGIYNSPLYFAAGTRLTVT
On to B1, for which the binding result was “recognises”.
